Data as given in article PMC8591604 (2021).
[ ]: non-standard residue; d: D form. pY = N[C@@H](Cc1ccc(OP(=O)(O)O)cc1)C(=O)O

B1: P8F5, P8 analogue with F at position +5 (peptide)
chain: Ac-LN[pY]IDLDF-NH2
SMILES: CC[C@H](C)[C@H](NC(=O)[C@H](Cc1ccc(OP(=O)(O)O)cc1)NC(=O)[C@H](CC(N)=O)NC(=O)[C@H](CC(C)C)NC(C)=O)C(=O)N[C@@H](CC(=O)O)C(=O)N[C@@H](CC(C)C)C(=O)N[C@@H](CC(=O)O)C(=O)N[C@@H](Cc1ccccc1)C(N)=O
B2: P8E4W5, P8 analogue with E at position +4 and W at position +5 (peptide)
chain: Ac-LN[pY]IDLEW-NH2
SMILES: CC[C@H](C)[C@H](NC(=O)[C@H](Cc1ccc(OP(=O)(O)O)cc1)NC(=O)[C@H](CC(N)=O)NC(=O)[C@H](CC(C)C)NC(C)=O)C(=O)N[C@@H](CC(=O)O)C(=O)N[C@@H](CC(C)C)C(=O)N[C@@H](CCC(=O)O)C(=O)N[C@@H](Cc1c[nH]c2ccccc12)C(N)=O
B3: P8, unlabeled IRS-1 pY1172 peptide, residues −2 to +5 (peptide)
peptide: Ac-LN[pY]IDLDL-NH2
SMILES: CC[C@H](C)[C@H](NC(=O)[C@H](Cc1ccc(OP(=O)(O)O)cc1)NC(=O)[C@H](CC(N)=O)NC(=O)[C@H](CC(C)C)NC(C)=O)C(=O)N[C@@H](CC(=O)O)C(=O)N[C@@H](CC(C)C)C(=O)N[C@@H](CC(=O)O)C(=O)N[C@@H](CC(C)C)C(N)=O

How the values were obtained:
[1] = molecular target: T1, N-SH2 domain of SHP2 (residues 2–111) (human, UniProt Q06124 2-111); assay: FP
T1 chain: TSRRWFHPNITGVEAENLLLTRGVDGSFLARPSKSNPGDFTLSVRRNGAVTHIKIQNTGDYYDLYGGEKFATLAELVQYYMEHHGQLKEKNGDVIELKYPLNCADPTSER

[2] = molecular target: T1, N-SH2 domain of SHP2 (residues 2–111); assay: FP
[3] = molecular target: T1, N-SH2 domain of SHP2 (residues 2–111); assay: FP; displacement of CF-P9W5
[4] = molecular target: T1, N-SH2 domain of SHP2 (residues 2–111); assay: FP; displacement of CF-P9W5

Row | Binder | EC50 [1] [nM] | Kd [2] [nM] | EC50 [3] [nM] | Kd [4] [nM]
1 | B1 | 16 | 7 | – | –
2 | B2 | 11 | 4 | – | –
3 | Ac-LN[pY]IDLDW-NH2 [P8W5, P8 analogue with W at position +5] | 5.4 | – | – | –
4 | B3 | – | – | 47 | 22
